According to paper PMC2691550 (Biochemistry, 2006):

Biological target: the molecule itself
Test: crystal structure

B1: Tyrosine phenol-lyase holoenzyme (Citrobacter freundii), in complex with pyridoxal-5′-phosphate and K+ at pH 8.0 (enzyme, UniProt P31013 1-456, looked up)
chain: MNYPAEPFRIKSVETVSMIPRDERLKKMQEAGYNTFLLNSKDIYIDLLTDSGTNAMSDKQWAGMMMGDEAYAGSENFYHLERTVQELFGFKHIVPTHQGRGAENLLSQLAIKPGQYVAGNMYFTTTRYHQEKNGAVFVDIVRDEAHDAGLNIAFKGDIDLKKLQKLIDEKGAENIAYICLAVTVNLAGGQPVSMANMRAVRELTEAHGIKVFYDATRCVENAYFIKEQEQGFENKSIAEIVHEMFSYADGCTMSGKKDCLVNIGGFLCMNDDEMFSSAKELVVVYEGMPSYGGLAGRDMEAMAIGLREAMQYEYIEHRVKQVRYLGDKLKAAGVPIVEPVGGHAVFLDARRFCEHLTQDEFPAQSLAASIYVETGVRSMERGIISAGRNNVTGEHHRPKLETVRLTIPRRVYTYAHMDVVADGIIKLYQHKEDIRGLKFIYEPKQLRFFTARFDYI
modifications: Lys257 Nζ covalently linked to C4′ of pyridoxal-5′-phosphate (internal aldimine)
  stoichiometry N: 4
